In PMC12283126, “The Pseudomonas aeruginosa Type VI secretion system toxin Tse8 evolved from a novel N-carbamoylputrescine amidohydrolase” (Biochemical Journal, 2025):

Legend:
Test in all cases: ammonia release, indophenol blue, OD640; Michaelis-Menten fit
Details in all cases: 50 mM MES-NaOH pH 7.0, 1 mM DTT, 40 °C, 30 min, 10 nM enzyme
[1] = substrate: NCCCCNC(N)=O; assay type: biochemical, Shewanella oneidensis
Text: ammonia release, indophenol blue, OD640; Michaelis-Menten fit on Shewanella oneidensis AguY (SoAguY)

[2] = substrate: NCCCCNC(N)=O; assay type: biochemical, Pseudomonas aeruginosa
Text: ammonia release, indophenol blue, OD640; Michaelis-Menten fit on P. aeruginosa NCPAH/AguB (PaAguB)

[3] = substrate: NCCCCNC(N)=O; assay type: biochemical, Microterricola gilva
Text: ammonia release, indophenol blue, OD640; Michaelis-Menten fit on Microterricola gilva AguY (MgAguY)

B1: Shewanella oneidensis AguY (SoAguY) (Shewanella oneidensis MR-1) (protein)
chain: MFEVTEVSIAELRAALESGRTTVVELVKSYLARVAAYDGPATETKLNALVVHNPDALKEAEASDARRARGETLSPLDGIPYTAKDSYLVKGLTAASGSPAFKDLVAQYDAFAVERLRAAGAICLGKTNMPPMANGGMQRGHYGRAESPYNAEYLTAPFASGSSNGAGTGTAASYSAFGLAEETWSSGRGPASNNGLCAYTPSRGVISVRGNWPLTPTMDVVVPYTRTMADMLEVLDVIVADDPITRGDLWRLQPWVQIPKASTVRPESYLALAASADTLKGKRFGVPRMYINKDELAGTSENPGIGGPTGQRIHTRQSVIDLWEAARKALEAAGAEVIEVDFPLVSNCEGDRPGAPTVFNRGIVTPQFLHDELWELSGWAFDEFLRANNDPKLNKLEDVVGHLIFPHDLCTLPNREGDLAAGMEEYVNMAKRGLKSFDQIDSIPDGLRGLEKTRKLDLEDWMDGLKLDAVLFPTVADVGPADAHVNPASADIAWSNGVWVANGNLAIRHLGVPTVTVPMGVMADIGMPVGLTFAGRAYDDNNLLKFAGAFESTGNRRIIPPRTPKLGQ
notes: full length, 568 aa, 60,996 Da; purified recombinant, codon-optimised synthetic gene, expressed in E. coli
For B1, the Km [1] was 740 ± 130 µM, the kcat [1] was 130 ± 4.5 s⁻¹ and the kcat/Km [1] was 179000 ± 28600 M⁻¹ s⁻¹.

B2: P. aeruginosa NCPAH/AguB (PaAguB) (Pseudomonas aeruginosa PAO1) (protein)
chain: MTRNVTVAATQMACSWDRPANIARAEKLVRQAAARGAQIILIQELFETPYFCQKPNPDYLQLATTVEENAAIAHFQALARELQVVLPISFFERAGRARFNSIAVIDADGGNLGVYRKSHIPDGPGYHEKYYFNPGDTGFKVWQTRYARIGVGICWDQWFPESARSMALLGAELLFYPTAIGSEPHDASISSRDHWQRVQQGHAGANLMPLVASNRIGREEQDGYDITFYGSSFIADPFGEKVEELNRTEEGILVHTFDLDALERTRSAWGVFRDRRPNLYGPLKTLDGSLES
notes: full length, 292 aa, 32,780 Da; purified recombinant, codon-optimised synthetic gene, expressed in E. coli
With B2 the Km [2] was 660 ± 110 µM, the kcat [2] was 54.1 ± 3 s⁻¹ and the kcat/Km [2] was 82500 ± 8800 M⁻¹ s⁻¹.

B3: Microterricola gilva AguY (MgAguY) (Microterricola gilva) (protein)
chain: MTSPTVGKGGIVEAGIDELAAALAAGETSAVALLDAYLARIRAFDAPGTATALNAYVVMNPDARADAEASDARRARGESRGPLDGIPYSAKDSYLAAGLTAAAGSPAFTALIAQQDAFTIERLRTAGAVLIGLTNMPPMANGGMQRGAYGRAESPYNAAWLTAAFGSGSSNGSGTATAASMCAFGLGEETWSSGRAPASNNALCAYTPSRGIISMRGNWPLVPTMDVVVPHTRTMADLLRVLDVIVAEDGDTRGDFWRSQPWLEIPRVDEHRPASYPSLAPTDLAAAQATLRGTRLGVPRMYINGDQDAGTGEPGGIGGPTGQRIETRASVIELWEAARRDLEAAGATVVEVDFPLVSNYEGDRAGAPTITNRGLVSPEFLHTELNDLAAWAWNDFLEMNGDPRLSSLAAVDGERIFPAPPGSLPDRYQGFDDDIADLPRIAAERHWASVEEIEELADGIRGLEHTRAIDFDAWMASNRLDAVVFPAVADVGPADMDVNEASADAGWRNGVWVANGNLVIRHFGIPTVTVPMGLMRDIRMPVGLTFAGLPYDDVALLRLAAAFERTAERRVAPPLSAPPARAHR
notes: full length, 584 aa, 61,738 Da; purified recombinant, codon-optimised synthetic gene, expressed in E. coli; genome has a second AguY paralog
B3 gave a Km [3] of 70 ± 300 µM, a kcat [3] of 39 ± 1.5 s⁻¹ and a kcat/Km [3] of 642000 ± 251000 M⁻¹ s⁻¹.
